{
  "source": "patent US9187558B2",
  "about": "“Anti-epithelial cell adhesion molecule (EpCAM) antibodies and methods of use thereof” (ACADEMIA SINICA, priority 2012, dated 2015)",
  "molecules": {"B1": {"name": "EpAb2-6: one of five newly generated anti-EpCAM mAbs; VH SEQ ID NO: 2, VL SEQ ID NO: 3 (antibody, listed as Homo sapiens, V domains shown)", "VH": "EVQLVESGPELKKPGETVKISCKASGYTFTDYSMHWVKQAPGKGLKWMGWINTETGEPTFADDFKGRFAFSLETSARTTYLQINNLKNEDTATYFCARTAVYWGQGTSLTVSS", "VL": "DIQLTQSPSSLSASLGERVSLTCRASQEISVSLSWLQQKPDGTIKRLIYATSTLDSGVPKRFSGSRSGSDYSLTISSLESEDFADYYCLQYASYPWTFGGGTKLEIKRADAAPTVS"}, "B2": {"name": "hEpAb2-6: CDRs of EpAb2-6 grafted onto human IgG1 backbone; VH SEQ ID NO: 24, VL SEQ ID NO: 25 (antibody, V domains shown)", "VH": "VKLQESGPELKKPGETVKISCKASGYTFTDYSMHWVKQAPGKGLKWMGWINTETGEPTYADDFKGRFAFSLETSASTAYLQINNLKNEDTATYFCARTAVYWGQGTTVTVSS", "VL": "B1 VL with L4M, K39E, A84V", "modifications": "human IgG1 backbone; Humanized VH domain; Humanized VL domain"}, "B3": {"name": "sEpEX: soluble extracellular domain of EpCAM (protein, UniProt P16422 24-265, looked up)", "extracellular domain": "QEECVCENYKLAVNCFVNNNRQCQCTSVGAQNTVICSKLAAKCLVMKAEMNGSKLGRRAKPEGALQNNDGLYDPDCDESGLFKAKQCNGTSMCWCVNTAGVRRTDKDTEITCSERVRTYWIIIELKHKAREKPYDSKSLRTALQKEITTRYQLDPKFITSILYENNVITIDLVQNSSQKTQNDVDIADVAYYFEKDVKGESLFHSKKMDLTVNGEQLDLDPGQTLIYYVDEKAPEFSMQGLK", "modifications": "extracellular domain", "notes": "soluble extracellular domain of EpCAM"}},
  "key": {"HCT116 sphere cells": {"test_system": "HCT116 sphere cells", "test": "Spheroid (tumorsphere formation) assay", "format": "cell-based, human", "procedure": "Spheroid Assay. For spheroid formation, culture cells were disassociated into single cells. 5×10^3 cells were seeded at an ultra-low 6-well plate (CORNING™ for 6 days and were maintained in DMEM/F12 supplemented with B27 (INVITROGEN®), EGF (10 ng/ml) and FGF (25 ng/ml) twice a week. The spheres were counted under a microscope. For serum-induced differentiation assay, tumorspheres were cultured in matrigel-coated plate supplemented with DMEM containing 10% FBS for 7 days to induce the differentiation process."}, "[1]": {"test_system": "c-MYC, OCT4, NANOG, and SOX2 promoters", "test": "Luciferase reporter assay of reprogramming gene promoters", "format": "cell-based, human", "procedure": "Luciferase Reporter Assay. Cells were seeded in a plate and co-transfected with pcDNA3.1, EpCAM, EpICD, or EpEX-expressing vectors (400 ng) and pGL4-Oct4-Luc, Nanog-Luc, Sox2-Luc, or c-Myc-Luc-expressing plasmid (100 ng) by PolyJET for 24 h. Promoter activities were measured by the Dul-Glo Luciferase kit (Promega), and the transfected efficiency was normalized by co-transfection with pRL-TK (20 ng) as an internal control."}, "EpICD cleavage": {"test_system": "EpICD cleavage", "test": "EpICD cleavage and cellular localization (confocal immunofluorescence, Western blot)", "format": "cell-based, human", "settings": "for EpICD cleavage: 24 h, TAPI 40 μM", "procedure": "Immunofluorescent Staining. Cells cultured on cover slips were fixed in paraformaldehyde, washed, and then blocked with 1% bovine serum albumin in PBS for 10 min. Cells were incubated at room temperature with primary antibodies in 1% bovine serum albumin. After 1 h incubation, cells were washed and incubated with fluorescein isothiocyanate (FITC) goat anti-mouse antibody (Jackson ImmunoResearch Laboratories), Alexafluor488 goat-anti-mouse or Alexaflour568 goat-anti-rabbit (INVITROGEN®) antibodies. 4′,6-Diamidino-2-phenylindole (DAPI) was added for nuclear counter staining.\n(§1) Immunoprecipitation and Western Blot Analysis. […] The supernatants were immunoprecipitated using anti-EpCAM antibodies."}, "tumor invasiveness": {"test_system": "tumor invasiveness", "test": "Invasion assay (Matrigel transwell)", "format": "cell-based", "procedure": "Colony Formation and Invasion Assay. For colony formation assay, cells were seeded at a density of 5×10^3 in 6-well plate for 10 day, followed by fixing and staining with crystal violet. For invasion assay, cells (1×10^5) were seeded at a transwell insert (8-μm polycarbonate Nucleopore filters, Corning) coated with Matrigel (BD Biosciences) at room temperature for 30 min to form a genuine reconstituted basement membrane. After 24 h incubation, cells were fixed with methanol for 10 min, and non-invaded cells were then removed by cotton swap. The invaded cells were observed by staining with DAPI, imaged under an inverted fluorescent microscopy (Zeiss), and quantified by ImageJ software."}, "[2]": {"test_system": "vimentin, snail, and slug", "test": "EMT gene expression", "format": "cell-based, human", "procedure": "as §1\nRNA Extraction and Quantitative Real-Time RT-PCR. Total RNAs were prepared from the cell lines using ULTRASPEC RNA isolation reagent (Biotecx Laboratories, Houston, Tex.). cDNAs were reverse-transcribed using Super-Script III RNaseH-reverse transcriptase (INVITROGEN®, Carlsbad, Calif.) according to the manufacturer's instructions. Quantitative RT-PCR was performed by using the LightCycler480 System (Roche Applied Science). The gene expression level of each sample was normalized to the expression level of GAPDH in the same sample. The reactions were performed in triplicate, and S.D. values were calculated."}, "release of EpEX": {"test_system": "release of EpEX", "test": "Release of EpEX into HCT116 culture supernatants (immunoprecipitation and Western blot)", "format": "cell-based, human", "settings": "HCT116 cells, 24 h; DAPT 50 μM, TAPI 40 μM", "text": "as §1"}, "[3]": {"test_system": "SAS and HCT116 cell lines", "test": "Apoptosis assay, Annexin V-FITC and PI flow cytometry", "format": "cell-based, human", "settings": "0-20 μg/ml, 6 h", "procedure": "(§2) Apoptosis Assays. Cells were separately seeded and treated with 0-20 μg/ml mAbs for 6 h. Apoptotic cells were detected by Annexin V-FITC and PI and analyzed by a flow cytometer (BD imnmmunocytometry systems, San Jose, Calif.). Early apoptosis was measured with the Annexin V-FITC Apoptosis Detection kit II (BD Pharmingen, La Jolla, Calif.). Apoptotic nuclei were detected with propidium iodide (PI) staining."}, "[4]": {"test_system": "SAS-derived oral cancer xenografts", "test": "SAS-derived oral cancer xenograft antitumor efficacy", "settings": "n=6", "quoted_text": "Animal Model for Analysis of Antitumor Efficacy. […] Treatments were administered through tail vein injection, 10 mg/kg twice a week, for 4 consecutive weeks, with a total dose of 80 mg/kg. […] The tumor volumes were calculated as length×(width)^2×0.52."}, "[5]": {"test_system": "EpCAM mutants (Y95, D96 on EGF-II domain)", "settings": "mutations in positions Y95 or D96 on EGF-II domain; 1 μg/ml antibody", "quoted_text": "HEK293 cells at 80%-90% confluency in 6-well plates were transfected with plasmids of various EpCAMs. After two days transfection, the cells were washed with PBS. Cells were extracted with RIPA buffer, supplemented with a protease inhibitor mixture tablet and spun at 20,000 g for 30 min at 4° C. […] The signals were developed using enhanced chemiluminescence reagents (ECL) (Thermo Scientific, Rockford, Ill.)."}, "[6]": {"test_system": "HCT116 and tumorsphere (HCT116 sphere) cells", "test": "Hypodiploid DNA content by flow cytometry with PI staining", "format": "cell-based, human", "settings": "tumor and tumorsphere cells", "procedure": "as §2"}, "[7]": {"test_system": "human cancer cells (SAS, NPC039, HCT116, SKOV3)", "test": "Cellular ELISA, Western blot and FACS binding to cancer cell lines", "settings": "Western blot, FACS", "procedure": "ELISA. 96-well plates (Corning Costar, St. Louis, Mo.) were seeded with SAS (oral carcinoma), NPC, HCT116 (colon cancer), SKOV3 (ovarian cancer cell line), NNM and HUVEC cells. The plates fixed with 2% paraformaldehyde and blocked with 1% bovine serum albumin. OCAb9-1 was added to the plates and incubated for 1 h. The plates were then washed with PBS containing 0.1% (w/v) TWEEN® 20 (PBST0.1) and incubated with horseradish peroxidase-conjugated anti-mouse IgG (Jackson ImmunoResearch Laboratories) for another 1 h. After washing, the plates were incubated with substrate solution o-phenylenediamine dihydrochloride (SIGMA™). The reaction was stopped by adding 3 N HCl, and the plates were read using a microplate reader at 490 nm.\nFlow Cytometry. SAS, HCT116 and NNM were dissociated with 0.25% trypsin-EDTA (1 mM) (INVITROGEN®) for 1-3 min. Cells were washed with fluorescence-activated cell sorting buffer (PBS containing 1% fetal calf serum) and then incubated for 1 h at 4° C. in fluorescence-activated cell sorting buffer with the OCAb9-1 and EpAb mAbs at dilutions that ranged from […]. Phycoerythrin-conjugated goat anti-mouse IgG was used as a secondary antibody (dilution 1:250; Jackson ImmunoResearch Laboratories (West Grove, Pa.) for 30 min at 4° C. After the final wash, the cells were re-suspended with 1% FBS in PBS and analyzed by flow cytometry (BD, San Jose, Calif.). […]"}, "CCD-1112Sk normal cells": {"test_system": "CCD-1112Sk normal cells", "test": "Cellular ELISA binding to normal foreskin cells", "set-up": "species or system human"}, "[8]": {"settings": "HCT116 cells, sEpEX 2.5, 5 μg/ml"}},
  "note": "Numbering of substitutions follows the chain as printed.",
  "data": [
    {"molecule": "C[C@H](NC(=O)Cc1cc(F)cc(F)c1)C(=O)N[C@H](C(=O)OC(C)(C)C)c1ccccc1", "note": "[DAPT]", "values": [
      {"measurement": "sphere-forming capacity", "setting": "HCT116 sphere cells", "value": "decreasing"},
      {"measurement": "EpCAM-induced transcriptional activities of c-MYC, OCT4, NANOG, and SOX2", "setting": "[1]", "value": "blocked"},
      {"measurement": "expression of soluble EpICD-v5 (10 kDa)", "setting": "EpICD cleavage; 293T/EpCAM-v5 cells", "value": "reduced"},
      {"measurement": "EpICD cleavage", "setting": "EpICD cleavage; HCT116 cells, DAPT 50 μM", "value": "inhibited EpICD cleavage"},
      {"measurement": "soluble EpICD signals in cytoplasm and nucleus", "setting": "EpICD cleavage; HCT116 cells, DAPT 50 μM", "value": "blocked"},
      {"measurement": "tumor invasiveness", "setting": "tumor invasiveness", "value": "decreasing"},
      {"measurement": "expressions of vimentin, snail, and slug", "setting": "[2]", "value": "suppressed"},
      {"measurement": "release of EpEX", "setting": "release of EpEX", "value": "blocked the release of EpEX"}
    ]},
    {"molecule": "TAPI", "values": [
      {"measurement": "EpICD cleavage", "setting": "EpICD cleavage; HCT116 cells, DAPT 50 μM", "value": "inhibited EpICD cleavage"},
      {"measurement": "release of EpEX", "setting": "release of EpEX", "value": "blocked the release of EpEX"}
    ]},
    {"molecule": "B1", "values": [
      {"measurement": "tumorsphere formation", "setting": "HCT116 sphere cells; 6 days treatment", "value": "suppressed tumorsphere formation effectively"},
      {"measurement": "induction of cancer cell apoptosis", "setting": "[3]", "value": "could induce cancer cell apoptosis"},
      {"measurement": "tumor size of control PBS group relative to EpAb2-6 group", "setting": "[4]; 10 mg/kg i.v. twice a week", "value": 1.5, "unit": "fold"},
      {"measurement": "median overall survival of tumor-bearing mice", "setting": "[4]; SAS xenograft", "value": 71, "unit": "days"},
      {"measurement": "relative binding activity to EpCAM mutants vs wild type", "setting": "[5]", "value": "markedly reduction"},
      {"measurement": "hypodiploid DNA content", "setting": "[6]", "value": "induced hypodiploid DNA content"}
    ]},
    {"molecule": "B2", "values": [
      {"measurement": "induction of cancer cell apoptosis", "setting": "[3]", "value": "induced cancer cell apoptosis"},
      {"measurement": "recognition of (binding to) human cancer cells", "setting": "[7]", "value": "recognized both SAS and HCT116 cancer cells"},
      {"measurement": "recognition of CCD-1112Sk normal cells", "setting": "CCD-1112Sk normal cells", "value": "not CCD-1112Sk normal cells"}
    ]},
    {"molecule": "B3", "values": [
      {"measurement": "reporter activities of c-MYC, OCT4, NANOG, and SOX2", "setting": "[1]; HCT116 cells, sEpEX 2 μg/ml", "value": "induced reporter activities"},
      {"measurement": "induction of EpICD cleavage", "setting": "EpICD cleavage; [8]", "value": "inductions"},
      {"measurement": "induction of vimentin expression", "setting": "[2]; [8]", "value": "inductions"}
    ]}
  ]
}
